Measurements published in patent US20050037448A1.

How the values were obtained:
des-31,32-proinsulin [1] = biological target: des-31,32-proinsulin (UniProt P01308); experiment: competitive RIA, PEP001-coated tubes, 125I-Tyr-C-peptide; serum E1 overloaded with 0.16 pmol/ml des-31,32-proinsulin; no AC1D4
des-64,65-proinsulin [2] = biological target: des-64,65-proinsulin (UniProt P01308); experiment: competitive RIA, PEP001-coated tubes, 125I-Tyr-C-peptide; serum E1 overloaded with 3.33 pmol/ml des-64,65-proinsulin; competitor AC1D4 20 µg/ml
des-31,32-proinsulin [3] = biological target: des-31,32-proinsulin (UniProt P01308); experiment: competitive RIA, PEP001-coated tubes, 125I-Tyr-C-peptide; serum E1 overloaded with 0.67 pmol/ml des-31,32-proinsulin; competitor AC1D4 20 µg/ml
human proinsulin (human) [4] = biological target: human proinsulin (human) (UniProt P01308); experiment: competitive RIA, PEP001-coated tubes, 125I-Tyr-C-peptide; serum E1 overloaded with 3.33 pmol/ml proinsulin; competitor AC1D4 20 µg/ml
des-31,32-proinsulin [5] = biological target: des-31,32-proinsulin (UniProt P01308); experiment: competitive RIA, PEP001-coated tubes, 125I-Tyr-C-peptide; serum E1 overloaded with 0.16 pmol/ml des-31,32-proinsulin; competitor AC1D4 20 µg/ml
des-31,32-proinsulin [6] = biological target: des-31,32-proinsulin (UniProt P01308); experiment: competitive RIA, PEP001-coated tubes, 125I-Tyr-C-peptide; serum E2 overloaded with 3.33 pmol/ml des-31,32-proinsulin; no AC1D4
des-64,65-proinsulin [7] = biological target: des-64,65-proinsulin (UniProt P01308); experiment: competitive RIA, PEP001-coated tubes, 125I-Tyr-C-peptide; serum E1 overloaded with 0.67 pmol/ml des-64,65-proinsulin; competitor AC1D4 20 µg/ml
human proinsulin (human) [8] = biological target: human proinsulin (human) (UniProt P01308); experiment: competitive RIA, PEP001-coated tubes, 125I-Tyr-C-peptide; serum E1 overloaded with 3.33 pmol/ml proinsulin; no AC1D4
des-64,65-proinsulin [9] = biological target: des-64,65-proinsulin (UniProt P01308); experiment: sandwich immunoenzymatic C-peptide assay: PEP001 beads, goat polyclonal anti-C-peptide-alkaline phosphatase; competitor BC9B6 20 µg/ml
des-31,32-proinsulin [10] = biological target: des-31,32-proinsulin (UniProt P01308); experiment: as above
human proinsulin (human) [11] = biological target: human proinsulin (human) (UniProt P01308); experiment: as above
des-31,32-proinsulin [12] = biological target: des-31,32-proinsulin (UniProt P01308); experiment: competitive RIA, PEP001-coated tubes, 125I-Tyr-C-peptide; serum E1 overloaded with 3.33 pmol/ml des-31,32-proinsulin; no AC1D4
des-31,32-proinsulin [13] = biological target: des-31,32-proinsulin (UniProt P01308); experiment: competitive RIA, PEP001-coated tubes, 125I-Tyr-C-peptide; serum E2 overloaded with 0.67 pmol/ml des-31,32-proinsulin; no AC1D4
des-64,65-proinsulin [14] = biological target: des-64,65-proinsulin (UniProt P01308); experiment: competitive RIA, PEP001-coated tubes, 125I-Tyr-C-peptide; serum E1 overloaded with 0.16 pmol/ml des-64,65-proinsulin; no AC1D4
des-31,32-proinsulin [15] = biological target: des-31,32-proinsulin (UniProt P01308); experiment: competitive RIA, PEP001-coated tubes, 125I-Tyr-C-peptide; serum E2 overloaded with 3.33 pmol/ml des-31,32-proinsulin; competitor AC1D4 20 µg/ml
human proinsulin (human) [16] = biological target: human proinsulin (human) (UniProt P01308); experiment: competitive RIA, PEP001-coated tubes, 125I-Tyr-C-peptide; serum E2 overloaded with 3.33 pmol/ml proinsulin; competitor AC1D4 20 µg/ml
des-64,65-proinsulin [17] = biological target: des-64,65-proinsulin (UniProt P01308); experiment: competitive RIA, PEP001-coated tubes, 125I-Tyr-C-peptide; serum E2 overloaded with 0.67 pmol/ml des-64,65-proinsulin; competitor AC1D4 20 µg/ml
human proinsulin (human) [18] = biological target: human proinsulin (human) (UniProt P01308); experiment: competitive RIA, PEP001-coated tubes, 125I-Tyr-C-peptide; serum E1 overloaded with 0.67 pmol/ml proinsulin; no AC1D4
human proinsulin (human) [19] = biological target: human proinsulin (human) (UniProt P01308); experiment: competitive RIA, PEP001-coated tubes, 125I-Tyr-C-peptide; serum E1 overloaded with 0.67 pmol/ml proinsulin; competitor AC1D4 20 µg/ml
human proinsulin (human) [20] = biological target: human proinsulin (human) (UniProt P01308); experiment: competitive RIA, PEP001-coated tubes, 125I-Tyr-C-peptide; serum E1 overloaded with 0.16 pmol/ml proinsulin; no AC1D4
des-64,65-proinsulin [21] = biological target: des-64,65-proinsulin (UniProt P01308); experiment: sandwich immunoenzymatic C-peptide assay: PEP001 beads, goat polyclonal anti-C-peptide-alkaline phosphatase; no AC1D4
des-31,32-proinsulin [22] = biological target: des-31,32-proinsulin (UniProt P01308); experiment: as above
des-64,65-proinsulin [23] = biological target: des-64,65-proinsulin (UniProt P01308); experiment: competitive RIA, PEP001-coated tubes, 125I-Tyr-C-peptide; serum E2 overloaded with 3.33 pmol/ml des-64,65-proinsulin; no AC1D4
des-64,65-proinsulin [24] = biological target: des-64,65-proinsulin (UniProt P01308); experiment: sandwich immunoenzymatic C-peptide assay: PEP001 beads, goat polyclonal conjugate; no AC1D4 or BC9B6
des-31,32-proinsulin [25] = biological target: des-31,32-proinsulin (UniProt P01308); experiment: as above
human proinsulin (human) [26] = biological target: human proinsulin (human) (UniProt P01308); experiment: as above
des-64,65-proinsulin [27] = biological target: des-64,65-proinsulin (UniProt P01308); experiment: sandwich immunoenzymatic C-peptide assay: PEP001 beads, goat polyclonal anti-C-peptide-alkaline phosphatase; competitor AC1D4 20 µg/ml
des-31,32-proinsulin [28] = biological target: des-31,32-proinsulin (UniProt P01308); experiment: as above
human proinsulin (human) [29] = biological target: human proinsulin (human) (UniProt P01308); experiment: as above

- Increase after overload (%) (des-31,32-proinsulin [1]): 8%
- Increase after overload (%) (des-64,65-proinsulin [2]): 242%
- Increase after overload (%) (des-31,32-proinsulin [3]): 12%
- Increase after overload (%) (human proinsulin (human) [4]): 31%
- Increase after overload (%) (des-31,32-proinsulin [5]): 5%
- Increase after overload (%) (des-31,32-proinsulin [6]): 59%
- Increase after overload (%) (des-64,65-proinsulin [7]): 63%
- Increase after overload (%) (human proinsulin (human) [8]): 288%
- percentage of cross reaction (des-64,65-proinsulin [9]): 8%
- percentage of cross reaction (des-31,32-proinsulin [10]): 115%
- percentage of cross reaction (human proinsulin (human) [11]): 8%
- Increase after overload (%) (des-31,32-proinsulin [12]): 213%
- Increase after overload (%) (des-31,32-proinsulin [13]): 8%
- Increase after overload (%) (des-64,65-proinsulin [14]): 6%
- Increase after overload (%) (des-31,32-proinsulin [15]): 6%
- Increase after overload (%) (human proinsulin (human) [16]): 0%
- Increase after overload (%) (des-64,65-proinsulin [17]): 18%
- Increase after overload (%) (human proinsulin (human) [18]): 56%
- Increase after overload (%) (human proinsulin (human) [19]): 6%
- Increase after overload (%) (human proinsulin (human) [20]): 15%
- percentage of cross reaction (des-64,65-proinsulin [21]): 94%
- percentage of cross reaction (des-31,32-proinsulin [22]): 108%
- Increase after overload (%) (des-64,65-proinsulin [23]): 55%
- percentage of cross reaction (des-64,65-proinsulin [24]): 94%
- percentage of cross reaction (des-31,32-proinsulin [25]): 108%
- percentage of cross reaction (human proinsulin (human) [26]): 92%
- percentage of cross reaction (des-64,65-proinsulin [27]): 85%
- percentage of cross reaction (des-31,32-proinsulin [28]): 16%
- percentage of cross reaction (human proinsulin (human) [29]): 8%
Substance: PEP001 anti-C-peptide monoclonal antibody
